# Positions count from the first letter of the chain named. In names and notes the source's numbering stands.
# T1: EsCas13d, nuclease-dead (Eubacterium siraeum, UniProt B0MS50, R295A;H300A;R849A;H854A)
# T1 sequence: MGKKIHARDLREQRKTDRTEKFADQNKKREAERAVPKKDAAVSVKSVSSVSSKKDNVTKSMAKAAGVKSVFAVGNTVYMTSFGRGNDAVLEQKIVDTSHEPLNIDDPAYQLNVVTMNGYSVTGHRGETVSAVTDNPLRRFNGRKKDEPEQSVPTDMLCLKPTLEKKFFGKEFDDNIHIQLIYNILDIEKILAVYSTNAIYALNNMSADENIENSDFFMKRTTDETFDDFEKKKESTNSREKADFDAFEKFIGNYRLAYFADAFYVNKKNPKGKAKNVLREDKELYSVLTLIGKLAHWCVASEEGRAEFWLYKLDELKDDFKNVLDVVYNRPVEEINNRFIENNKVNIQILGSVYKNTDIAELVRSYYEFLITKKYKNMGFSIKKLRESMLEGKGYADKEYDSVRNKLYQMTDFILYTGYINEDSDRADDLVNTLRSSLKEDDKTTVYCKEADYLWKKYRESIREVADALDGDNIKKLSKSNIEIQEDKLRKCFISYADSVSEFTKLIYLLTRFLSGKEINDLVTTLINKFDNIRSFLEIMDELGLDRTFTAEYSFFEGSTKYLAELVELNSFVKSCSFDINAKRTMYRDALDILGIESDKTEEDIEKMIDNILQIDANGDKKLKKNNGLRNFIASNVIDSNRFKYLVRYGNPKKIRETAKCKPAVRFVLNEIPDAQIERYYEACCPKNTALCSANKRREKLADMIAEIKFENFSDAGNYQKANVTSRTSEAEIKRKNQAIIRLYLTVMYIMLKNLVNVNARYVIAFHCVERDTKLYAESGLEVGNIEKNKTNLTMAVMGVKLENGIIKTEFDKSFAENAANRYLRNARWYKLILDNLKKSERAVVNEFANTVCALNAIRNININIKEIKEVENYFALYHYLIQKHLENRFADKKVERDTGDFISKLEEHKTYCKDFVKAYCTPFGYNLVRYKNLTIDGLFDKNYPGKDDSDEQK
# B1: target 1 A16U,G17A (mixed)
# RNA 1: CACCCGUGCAAAAAUGCAGGGGUCUAAAACUGAGCGGAUAACCUCUCUAUGG
# RNA 2: GGGAAUGGAUCCACAUCUACGAAUUCGUACCAUAAUGAGGUUAUCCGCUCACCGAGAUCGGAAGAGCACACGU
# B2: target 1 insG 3' of 21,insG 3' of 8 (mixed)
# RNA 1: B1 RNA 1
# RNA 2: GGGAAUGGAUCCACAUCUACGAAUUCGUACCGAUAGAGAGGUUAUGCCGCUCACCGAGAUCGGAAGAGCACACGU
# B3: target 1 insA 3' of 12,insC 3' of 12 (mixed)
# RNA 1: B1 RNA 1
# RNA 2: GGGAAUGGAUCCACAUCUACGAAUUCGUACCAUAGAGAGGACUUAUCCGCUCACCGAGAUCGGAAGAGCACACGU
# B4: target 1 insA 3' of 13,insU 3' of 4 (mixed)
# RNA 1: B1 RNA 1
# RNA 2: B3 RNA 2 with G40A, A41G, C42U, U44A, A45U, U46C, C48G, G49C, C50U
# B5: target 1 C2U,C7A (mixed)
# RNA 1: B1 RNA 1
# RNA 2: B1 RNA 2 with A35G, U36A, C45A, C50U
# B6: target 1 insC 3' of 20,insA 3' of 15 (mixed)
# RNA 1: B1 RNA 1
# RNA 2: B2 RNA 2 with G32A, A33C, G40A, U42G, A44U, U45A, G46U
# B7: target 1 A9C,U10G (mixed)
# RNA 1: B1 RNA 1
# RNA 2: B1 RNA 2 with A35G, U36A, U42G, A43C
# B8: target 1 insA 3' of 11,insU 3' of 4 (mixed)
# RNA 1: B1 RNA 1
# RNA 2: B3 RNA 2 with A41U, C42A, U44A, A45U, U46C, C48G, G49C, C50U
# B9: target 1 insA 3' of 6,insC 3' of 1 (mixed)
# RNA 1: B1 RNA 1
# RNA 2: GGGAAUGGAUCCACAUCUACGAAUUCGUACCAUAGAGAGGUUAUCCAGCUCACCCGAGAUCGGAAGAGCACACGU
# B10: target 1 insU 3' of 18,insA 3' of 6 (mixed)
# RNA 1: B1 RNA 1
# RNA 2: B2 RNA 2 with G32A, A33U, U34A, A35U, G46C, C48A
# B11: target 1 insA 3' of 19,insC 3' of 15 (mixed)
# RNA 1: B1 RNA 1
# RNA 2: B3 RNA 2 with G35A, A36G, G37A, A38G, G39C, G40A, A41G, C42G
# B12: target 1 insU 3' of 13,insC 3' of 3 (mixed)
# RNA 1: B1 RNA 1
# RNA 2: B9 RNA 2 with G40U, U41G, A43U, U44A, C45U, A47C, A52C, C53A
# B13: target 1 insG 3' of 21,insA 3' of 4 (mixed)
# RNA 1: B1 RNA 1
# RNA 2: B2 RNA 2 with G46C, C48G, G49C, C50A
# B14: target 1 insG 3' of 22,insC 3' of 15 (mixed)
# RNA 1: B1 RNA 1
# RNA 2: B2 RNA 2 with C31G, G32C, A39C, G40A, U42G, A44U, U45A, G46U
# B15: target 1 insA 3' of 21,insG 3' of 3 (mixed)
# RNA 1: B1 RNA 1
# RNA 2: B2 RNA 2 with G32A, G46C, C48G, G49C, C50U, U51G
# B16: target 1 insU 3' of 15,insG 3' of 14 (mixed)
# RNA 1: B1 RNA 1
# RNA 2: B3 RNA 2 with A38U, G39A, A41G, C42G
# B17: target 1 insG 3' of 8,insU 3' of 2 (mixed)
# RNA 1: B1 RNA 1
# RNA 2: B9 RNA 2 with C45G, A47C, A52U, C53A
# B18: target 1 insU 3' of 12,insG 3' of 6 (mixed)
# RNA 1: B1 RNA 1
# RNA 2: B3 RNA 2 with A41U, C42U, U44A, A45U, U46C, C48G
# B19: target 1 C22G (mixed)
# RNA 1: B1 RNA 1
# RNA 2: B1 RNA 2 with C30G, A35G, U36A
# B20: target 1 insU 3' of 17,insU 3' of 15 (mixed)
# RNA 1: B1 RNA 1
# RNA 2: B3 RNA 2 with A36U, G37A, A38G, G39U, G40A, A41G, C42G
# B21: target 1 insG 3' of 6,insC 3' of 5 (mixed)
# RNA 1: B1 RNA 1
# RNA 2: B9 RNA 2 with A47G, U50C, C51U, A52C, C53A
# B22: target 1 insA 3' of 11,insA 3' of 10 (mixed)
# RNA 1: B1 RNA 1
# RNA 2: B3 RNA 2 with A41U, C42A, U44A
# B23: target 1 insA 3' of 17,insC 3' of 13 (mixed)
# RNA 1: B1 RNA 1
# RNA 2: B3 RNA 2 with G37A, A38G, G39A, A41C, C42G
# B24: target 1 U3C,G12C (mixed)
# RNA 1: B1 RNA 1
# RNA 2: B1 RNA 2 with A35G, U36A, G40C, U49C
# B25: target 1 insU 3' of 20,insA 3' of 15 (mixed)
# RNA 1: B1 RNA 1
# RNA 2: B2 RNA 2 with G32A, A33U, G40A, U42G, A44U, U45A, G46U
# B26: target 1 insU 3' of 20,insA 3' of 19 (mixed)
# RNA 1: B1 RNA 1
# RNA 2: B3 RNA 2 with A34U, G35A, G40A, A41G, C42G
# B27: target 1 G5C,C22A (mixed)
# RNA 1: B1 RNA 1
# RNA 2: B1 RNA 2 with C30A, A35G, U36A, G47C
# B28: target 1 insG 3' of 16,insC 3' of 15 (mixed)
# RNA 1: B1 RNA 1
# RNA 2: B3 RNA 2 with A38G, G39C, G40A, A41G, C42G
# B29: target 1 insC 3' of 18,insA 3' of 6 (mixed)
# RNA 1: B1 RNA 1
# RNA 2: B2 RNA 2 with G32A, A33U, U34A, A35C, G46C, C48A
# B30: target 1 insU 3' of 14,insU 3' of 7 (mixed)
# RNA 1: B1 RNA 1
# RNA 2: B3 RNA 2 with G39U, A41G, C42U, U44A, A45U, U46C, C47U
# B31: target 1 C2G,U8A (mixed)
# RNA 1: B1 RNA 1
# RNA 2: B1 RNA 2 with A35G, U36A, U44A, C50G
# B32: target 1 A1U,A18U (mixed)
# RNA 1: B1 RNA 1
# RNA 2: B1 RNA 2 with A34U, A35G, U36A, A51U
# B33: target 1 C6A,U10G (mixed)
# RNA 1: B1 RNA 1
# RNA 2: B1 RNA 2 with A35G, U36A, U42G, C46A
# Target: T1, EsCas13d, nuclease-dead
# Test: crRNA (strand 1, pre-loaded); Mg2+; 40 mM Tris-HCl pH 7.5, 150 mM NaCl, 6 mM MgCl2, 1 mM DTT, 0.1% Tween-20, 0.2 mg/ml BSA; 25 C; 10 min per concentration, then washed
# Details: tags: His6-TwinStrep-SUMO cleaved; N-terminal SNAP kept (SNAP-Surface 488); label: 3' end held by stalled T7 RNA polymerase
row,Binder,Kd [nM]
1,B1,44 ± 6
2,B2,58 ± 10
3,B3,30.4 ± 1.8
4,B4,3.45 ± 0.26
5,B5,6.8 ± 0.5
6,B6,12.2 ± 1.1
7,B7,16.1 ± 0.6
8,B8,13.7 ± 0.9
9,B9,17.6 ± 1.1
10,B10,32.6 ± 1.1
11,B11,52 ± 9
12,B12,25 ± 5
13,B13,41 ± 10
14,B14,48 ± 4
15,B15,11.8 ± 0.6
16,B16,22.5 ± 2.2
17,B17,15.1 ± 0.6

row,Binder,Kd [nM]
1,B18,6.24 ± 0.17
2,B19,61 ± 11
3,B20,64 ± 28
4,B21,13.9 ± 1.1
5,B22,9.4 ± 0.5
6,B23,35 ± 4
7,B24,14 ± 2.3
8,B25,7.6 ± 0.5
9,B26,20.9 ± 1.4
10,B27,17.3 ± 1.9
11,B28,28.8 ± 2.1
12,B29,32.3 ± 1.5
13,B30,77 ± 9
14,B31,13.5 ± 0.8
15,B32,22 ± 2
16,B33,13.9 ± 0.7

# — publication PMC10786891, “Massively parallel profiling of RNA-targeting CRISPR-Cas13d”
